From the supplement of paper PMC10567573

B1: KLHL14 (parent)
chain: YVIGGRNETGYLSSVECYNLETNE

Variants of: B1
Assay: protein stability index of a GFP-peptide fusion (GPS, HEK-293T) (PSI 1-6); higher = more stable
Conditions: c terminus: a fixed tail appended
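Also: lentivirally expressed fusions sorted by FACS into six bins by GFP to DsRed ratio, PSI derived from sequencing read proportions per bin multiplied by bin number.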

Point of comparison: YVIGGRNETGYLSSVECYNLETKE [N23K], protein stability index 1.96. Against it:
- YVIGGRNETGYLSSVECYILETNE [N19I] — higher, 2.07
- YVIGGRNETGYLSSVECYKLETNE [N19K] — higher, 2.13
- YVIGGRNETGYLSSVECYLLETNE [N19L] — higher, 2.08
- YVIGGRNETGYLSSVECYMLETNE [N19M] — lower, 1.8
- YVIGGRNETGYLSSVECYPLETNE [N19P] — higher, 2.1
- YVIGGRNETGYLSSVECYQLETNE [N19Q] — higher, 2
- YVIGGRNETGYLSSVECYRLETNE [N19R] — lower, 1.49
- YVIGGRNETGYLSSVECYSLETNE [N19S] — lower, 1.83
- YVIGGRNETGYLSSVECYTLETNE [N19T] — higher, 2.17
- YVIGGRNETGYLSSVECYVLETNE [N19V] — lower, 1.66
- YVIGGRNETGYLSSVECYWLETNE [N19W] — higher, 2.77
- YVIGGRNETGYLSSVECYYLETNE [N19Y] — lower, 1.76
- YVIGGRNETGYLSSVECYNAETNE [L20A] — higher, 2.12
- YVIGGRNETGYLSSVECYNCETNE [L20C] — higher, 2.09
- YVIGGRNETGYLSSVECYNDETNE [L20D] — higher, 2.79
- YVIGGRNETGYLSSVECYNEETNE [L20E] — higher, 3.04
- YVIGGRNETGYLSSVECYNFETNE [L20F] — higher, 1.98
- YVIGGRNETGYLSSVECYNGETNE [L20G] — lower, 1.82
- YVIGGRNETGYLSSVECYNHETNE [L20H] — higher, 2.34
- YVIGGRNETGYLSSVECYNIETNE [L20I] — higher, 2.21
- YVIGGRNETGYLSSVECYNKETNE [L20K] — higher, 2.09
- YVIGGRNETGYLSSVECYNMETNE [L20M] — the same, 1.96
- YVIGGRNETGYLSSVECYNNETNE [L20N] — higher, 2.79
- YVIGGRNETGYLSSVECYNPETNE [L20P] — lower, 1.83
- YVIGGRNETGYLSSVECYNQETNE [L20Q] — higher, 2.48
- YVIGGRNETGYLSSVECYNRETNE [L20R] — higher, 2.39
- YVIGGRNETGYLSSVECYNSETNE [L20S] — higher, 2.18
- YVIGGRNETGYLSSVECYNTETNE [L20T] — higher, 2.36
- YVIGGRNETGYLSSVECYNVETNE [L20V] — lower, 1.78
- YVIGGRNETGYLSSVECYNWETNE [L20W] — lower, 1.55
- YVIGGRNETGYLSSVECYNYETNE [L20Y] — higher, 2.02
- YVIGGRNETGYLSSVECYNLATNE [E21A] — higher, 2.66
- YVIGGRNETGYLSSVECYNLCTNE [E21C] — higher, 2.61
- YVIGGRNETGYLSSVECYNLDTNE [E21D] — lower, 1.8
- YVIGGRNETGYLSSVECYNLFTNE [E21F] — higher, 2.62
- YVIGGRNETGYLSSVECYNLGTNE [E21G] — higher, 2.19
- YVIGGRNETGYLSSVECYNLHTNE [E21H] — lower, 1.63
- YVIGGRNETGYLSSVECYNLITNE [E21I] — higher, 2.05
- YVIGGRNETGYLSSVECYNLKTNE [E21K] — higher, 2.26
- YVIGGRNETGYLSSVECYNLLTNE [E21L] — lower, 1.67
- YVIGGRNETGYLSSVECYNLMTNE [E21M] — lower, 1.74
- YVIGGRNETGYLSSVECYNLNTNE [E21N] — lower, 1.55
- YVIGGRNETGYLSSVECYNLPTNE [E21P] — lower, 1.93
- YVIGGRNETGYLSSVECYNLQTNE [E21Q] — higher, 2.39
- YVIGGRNETGYLSSVECYNLRTNE [E21R] — lower, 1.91
- YVIGGRNETGYLSSVECYNLSTNE [E21S] — higher, 2.29
- YVIGGRNETGYLSSVECYNLTTNE [E21T] — lower, 1.68
- YVIGGRNETGYLSSVECYNLVTNE [E21V] — lower, 1.54
- YVIGGRNETGYLSSVECYNLWTNE [E21W] — higher, 3.54
- YVIGGRNETGYLSSVECYNLYTNE [E21Y] — higher, 2.17
- YVIGGRNETGYLSSVECYNLEANE [T22A] — higher, 2
- YVIGGRNETGYLSSVECYNLECNE [T22C] — lower, 1.79
- YVIGGRNETGYLSSVECYNLEDNE [T22D] — higher, 2.07
- YVIGGRNETGYLSSVECYNLEENE [T22E] — higher, 2.84
- YVIGGRNETGYLSSVECYNLEFNE [T22F] — lower, 1.54
- YVIGGRNETGYLSSVECYNLEGNE [T22G] — lower, 1.86
- YVIGGRNETGYLSSVECYNLEHNE [T22H] — higher, 2.54
- YVIGGRNETGYLSSVECYNLEINE [T22I] — lower, 1.84
- YVIGGRNETGYLSSVECYNLEKNE [T22K] — higher, 2.2
- YVIGGRNETGYLSSVECYNLELNE [T22L] — higher, 2.1
- YVIGGRNETGYLSSVECYNLEMNE [T22M] — lower, 1.49
- YVIGGRNETGYLSSVECYNLENNE [T22N] — lower, 1.63
- YVIGGRNETGYLSSVECYNLEPNE [T22P] — lower, 1.76
- YVIGGRNETGYLSSVECYNLEQNE [T22Q] — lower, 1.94
- YVIGGRNETGYLSSVECYNLERNE [T22R] — higher, 2.62
- YVIGGRNETGYLSSVECYNLESNE [T22S] — lower, 1.4
- YVIGGRNETGYLSSVECYNLEVNE [T22V] — higher, 2.6
- YVIGGRNETGYLSSVECYNLEWNE [T22W] — lower, 1.53
- YVIGGRNETGYLSSVECYNLEYNE [T22Y] — higher, 2.06
- YVIGGRNETGYLSSVECYNLETAE [N23A] — higher, 2.06
- YVIGGRNETGYLSSVECYNLETCE [N23C] — higher, 2.45
- YVIGGRNETGYLSSVECYNLETDE [N23D] — higher, 2.75
- YVIGGRNETGYLSSVECYNLETEE [N23E] — higher, 2.67
- YVIGGRNETGYLSSVECYNLETFE [N23F] — lower, 1.88
- YVIGGRNETGYLSSVECYNLETGE [N23G] — lower, 1.74
- YVIGGRNETGYLSSVECYNLETHE [N23H] — lower, 1.86
- YVIGGRNETGYLSSVECYNLETIE [N23I] — lower, 1.56
- YVIGGRNETGYLSSVECYNLETLE [N23L] — lower, 1.66
- YVIGGRNETGYLSSVECYNLETME [N23M] — lower, 1.89
- YVIGGRNETGYLSSVECYNLETPE [N23P] — lower, 1.75
- YVIGGRNETGYLSSVECYNLETQE [N23Q] — higher, 3.14
- YVIGGRNETGYLSSVECYNLETRE [N23R] — lower, 1.92
- YVIGGRNETGYLSSVECYNLETSE [N23S] — lower, 1.86
- YVIGGRNETGYLSSVECYNLETTE [N23T] — higher, 2.15
- YVIGGRNETGYLSSVECYNLETVE [N23V] — higher, 2.17
- YVIGGRNETGYLSSVECYNLETWE [N23W] — lower, 1.74
- YVIGGRNETGYLSSVECYNLETYE [N23Y] — lower, 1.75
- YVIGGRNETGYLSSVECYNLETNA [E24A] — lower, 1.64
- YVIGGRNETGYLSSVECYNLETNC [E24C] — the same, 1.96
- YVIGGRNETGYLSSVECYNLETND [E24D] — higher, 2.14
- YVIGGRNETGYLSSVECYNLETNF [E24F] — lower, 1.95
- YVIGGRNETGYLSSVECYNLETNG [E24G] — lower, 1.69
- YVIGGRNETGYLSSVECYNLETNH [E24H] — lower, 1.8
